Results as given in patent publication US20250289888A1.

Assays:
Test in all cases: cell-based or functional assay
[1] = target: human FcγRIIa, H variant (human) (UniProt P12318)
[2] = target: human FcγRIIa, R variant (human) (UniProt P12318)
human FcγRIIb (human) = human FcγRIIb (human) (UniProt P31994)
mouse FcγRIII (mouse) = mouse FcγRIII (mouse) (UniProt P08508)
mouse FcγRIV (mouse) = target: mouse FcγRIV (mouse)
Chain of mouse FcγRIV (mouse) (A0A0B4J1G0 21-203): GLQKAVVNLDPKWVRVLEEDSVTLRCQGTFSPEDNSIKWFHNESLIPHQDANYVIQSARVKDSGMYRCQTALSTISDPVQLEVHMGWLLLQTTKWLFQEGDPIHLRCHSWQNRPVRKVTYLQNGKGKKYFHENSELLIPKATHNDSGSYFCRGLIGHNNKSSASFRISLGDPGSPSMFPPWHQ

Chain of human FcγRIIb (human) (P31994 43-310): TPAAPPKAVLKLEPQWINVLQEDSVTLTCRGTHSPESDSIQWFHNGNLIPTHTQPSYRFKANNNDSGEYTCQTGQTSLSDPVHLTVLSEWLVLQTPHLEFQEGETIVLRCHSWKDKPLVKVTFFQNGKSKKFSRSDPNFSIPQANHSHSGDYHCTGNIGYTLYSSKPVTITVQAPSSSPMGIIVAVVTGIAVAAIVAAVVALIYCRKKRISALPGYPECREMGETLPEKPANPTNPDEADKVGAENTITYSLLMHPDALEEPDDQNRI
Chain of human FcγRIIa, R variant (human) (P12318 other isoform, or with tags, fused parts or gaps mutant limits assumed): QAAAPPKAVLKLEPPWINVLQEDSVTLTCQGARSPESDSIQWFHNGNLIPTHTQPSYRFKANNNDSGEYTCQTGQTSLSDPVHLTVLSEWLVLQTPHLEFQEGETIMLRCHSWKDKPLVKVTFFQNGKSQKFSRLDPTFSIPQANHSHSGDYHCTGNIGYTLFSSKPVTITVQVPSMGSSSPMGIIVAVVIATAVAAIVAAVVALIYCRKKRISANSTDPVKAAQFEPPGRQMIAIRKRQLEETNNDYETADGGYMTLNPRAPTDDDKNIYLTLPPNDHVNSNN
Chain of human FcγRIIa, H variant (human) (P12318 34-317, change not shown): as the sequence (P12318 other isoform, or with tags, fused parts or gaps mutant limits assumed) above, with R134H counted along it
Chain of mouse FcγRIII (mouse) (P08508 31-261): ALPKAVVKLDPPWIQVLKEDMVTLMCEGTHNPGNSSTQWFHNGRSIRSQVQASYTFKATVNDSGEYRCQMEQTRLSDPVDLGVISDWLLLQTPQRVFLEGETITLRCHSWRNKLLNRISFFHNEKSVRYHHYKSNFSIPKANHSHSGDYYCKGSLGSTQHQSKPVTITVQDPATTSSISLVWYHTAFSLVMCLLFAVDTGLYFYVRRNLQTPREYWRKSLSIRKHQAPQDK

For Ipilimumab (antibody), the EC50 [1] was 0.05 µg/mL, the Maximum luminescence (RLU) [1] was 973 RLU and the EC50 [2] was 0.21 µg/mL. It also gave a Maximum luminescence (RLU) [2] of 2640 RLU, an EC50 (human FcγRIIb (human)) of 0.17 µg/mL and a Maximum luminescence (RLU) (human FcγRIIb (human)) of 5800 RLU. It also gave a Maximum luminescence (RLU) (mouse FcγRIII (mouse)) of 17500 RLU, an EC50 (mouse FcγRIV (mouse)) of 2.21 µg/mL and a Maximum luminescence (RLU) (mouse FcγRIV (mouse)) of 990 RLU.
